The target in assay [1] is T1, EDDF2, central domain of EDD (aa 889-1877) (human, UniProt O95071 889-1877).
T1 construct: In vitro translated, 35S-labelled; also called central third; central region of EDD
T1 sequence: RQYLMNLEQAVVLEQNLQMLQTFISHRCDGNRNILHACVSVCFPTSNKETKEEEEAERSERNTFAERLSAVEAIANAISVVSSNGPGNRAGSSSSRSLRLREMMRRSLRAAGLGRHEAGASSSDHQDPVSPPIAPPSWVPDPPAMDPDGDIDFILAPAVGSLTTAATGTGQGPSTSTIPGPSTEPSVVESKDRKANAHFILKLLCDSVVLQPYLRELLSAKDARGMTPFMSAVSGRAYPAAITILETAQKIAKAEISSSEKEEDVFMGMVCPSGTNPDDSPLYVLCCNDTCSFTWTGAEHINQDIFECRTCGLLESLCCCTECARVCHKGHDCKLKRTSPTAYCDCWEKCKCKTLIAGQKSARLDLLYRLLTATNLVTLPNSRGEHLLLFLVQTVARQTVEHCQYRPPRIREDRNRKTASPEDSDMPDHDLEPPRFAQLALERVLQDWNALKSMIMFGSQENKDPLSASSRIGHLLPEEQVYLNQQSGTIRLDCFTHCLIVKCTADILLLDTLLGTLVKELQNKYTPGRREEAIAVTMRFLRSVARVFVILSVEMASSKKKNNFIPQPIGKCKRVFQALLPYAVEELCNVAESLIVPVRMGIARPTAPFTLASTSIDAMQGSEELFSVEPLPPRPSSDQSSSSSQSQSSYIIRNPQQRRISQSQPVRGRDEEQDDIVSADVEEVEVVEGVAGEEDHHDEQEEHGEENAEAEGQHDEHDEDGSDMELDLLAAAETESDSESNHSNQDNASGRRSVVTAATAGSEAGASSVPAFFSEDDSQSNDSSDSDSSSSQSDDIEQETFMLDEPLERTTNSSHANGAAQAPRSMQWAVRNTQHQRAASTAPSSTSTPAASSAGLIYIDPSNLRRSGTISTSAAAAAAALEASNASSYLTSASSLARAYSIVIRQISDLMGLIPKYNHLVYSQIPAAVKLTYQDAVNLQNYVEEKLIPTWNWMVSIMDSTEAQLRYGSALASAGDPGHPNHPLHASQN
Description: GST-importin α5 pull-down of IVT 35S-EDD fragments.

Assay [2] concerns the target T2, EDDF3, carboxy domain of EDD (aa 1877-2799) (human, UniProt O95071 1877-2799).
T2 construct: In vitro translated, 35S-labelled; also called carboxy third; carboxy terminal region of EDD
T2 sequence: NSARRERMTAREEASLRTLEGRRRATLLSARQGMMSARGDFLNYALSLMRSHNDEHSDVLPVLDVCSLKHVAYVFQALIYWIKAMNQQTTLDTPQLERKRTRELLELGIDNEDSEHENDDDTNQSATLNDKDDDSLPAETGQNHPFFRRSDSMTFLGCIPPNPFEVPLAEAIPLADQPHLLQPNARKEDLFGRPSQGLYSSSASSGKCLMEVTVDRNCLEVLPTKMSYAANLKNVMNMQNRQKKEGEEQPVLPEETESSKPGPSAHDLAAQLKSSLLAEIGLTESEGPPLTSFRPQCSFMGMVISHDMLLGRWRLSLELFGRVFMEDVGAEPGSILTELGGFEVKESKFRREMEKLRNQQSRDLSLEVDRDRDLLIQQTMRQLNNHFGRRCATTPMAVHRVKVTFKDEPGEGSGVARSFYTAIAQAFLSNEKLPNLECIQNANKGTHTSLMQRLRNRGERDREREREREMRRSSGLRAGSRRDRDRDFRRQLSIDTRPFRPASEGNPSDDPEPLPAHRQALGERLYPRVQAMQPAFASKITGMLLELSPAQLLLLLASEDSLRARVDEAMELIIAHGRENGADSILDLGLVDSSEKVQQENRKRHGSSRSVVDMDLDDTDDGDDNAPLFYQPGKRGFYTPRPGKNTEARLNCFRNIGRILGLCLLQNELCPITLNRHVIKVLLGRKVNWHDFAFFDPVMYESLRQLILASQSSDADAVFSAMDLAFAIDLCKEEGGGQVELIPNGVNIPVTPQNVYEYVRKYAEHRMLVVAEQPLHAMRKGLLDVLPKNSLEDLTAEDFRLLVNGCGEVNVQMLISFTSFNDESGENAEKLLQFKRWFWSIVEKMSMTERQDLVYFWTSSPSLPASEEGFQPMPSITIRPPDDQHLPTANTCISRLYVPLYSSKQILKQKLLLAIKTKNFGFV
Description: GST-importin α5 pull-down of IVT 35S-EDD fragments.

In assay [3] the target is T3, EDDF1c (EDD aa 1-419) (human, UniProt O95071 1-419).
T3 construct: In vitro translated, 35S-labelled; Contains neither N-terminal NLS
T3 sequence: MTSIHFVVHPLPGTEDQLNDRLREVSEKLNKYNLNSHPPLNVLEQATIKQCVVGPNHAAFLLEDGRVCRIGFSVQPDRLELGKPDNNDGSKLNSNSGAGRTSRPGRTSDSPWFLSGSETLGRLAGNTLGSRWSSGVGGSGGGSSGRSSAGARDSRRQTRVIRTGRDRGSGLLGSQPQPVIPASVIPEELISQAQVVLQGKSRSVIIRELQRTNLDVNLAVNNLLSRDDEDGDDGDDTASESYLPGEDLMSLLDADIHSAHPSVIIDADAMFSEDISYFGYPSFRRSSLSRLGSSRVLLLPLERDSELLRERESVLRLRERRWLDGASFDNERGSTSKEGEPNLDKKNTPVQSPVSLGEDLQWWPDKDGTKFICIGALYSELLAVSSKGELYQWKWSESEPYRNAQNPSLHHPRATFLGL
Description: GST-importin α5 pull-down of IVT N-terminal EDD derivatives.

Assay [4] addresses T4, EDDF5, central plus C-terminal domains of EDD (aa 889-2799) (human, UniProt O95071 889-2799, binding suggested to be mediated by a phosphorylated threonine residue; residue not identified).
T4 construct: In vitro translated, 35S-labelled; also called carboxyl two-thirds of EDD
The experiment in a line: GST pull-down of IVT 35S-EDDF5. The protocol:
(§1) To determine the requirement for the chk2 FHA domain in this interaction, the binding between EDD and GSTchk2-N and two mutants was assessed. The R117A mutant contains a substitution within the FHA domain and involves a residue directly required for phosphothreonine binding.

Assay [5] has as its target T5, EDD protein, full length (aa 1-2799) (human, UniProt O95071 1-2799, EDD is phosphorylated in cells; the residue involved has not yet been identified).
T5 construct: also called in vitro translated 35S-labelled EDD; endogenous EDD
The experiment in a line: GST pull-down from MCF-7 nuclear extracts, EDD western blot. The protocol:
For GST fusion protein pull-down of endogenous or recombinant EDD from cell lysates, 0.5 to 1 mg total protein was incubated with 5 μg GST or GST fusion protein bound to glutathione beads for 1-2 h at 4° C. Beads were washed extensively in 1% Triton X-100 lysis buffer and bound proteins resolved by SDS-PAGE and detected by immunoblotting with EDD antisera (Callaghan et al, Oncogene 17, 3479-3491, 1998). For immunoprecipitation, 10 μl importin α5 antisera (Peter Palese, Mount Sinai School of Medicine) was incubated with 0.5 to 1 mg cell lysate (4° C. for 1 h). Antibody conjugates were captured on protein A sepharose beads (4° C. for 1 h) and washed extensively in lysis buffer. Bound proteins were resolved by SDS-PAGE followed by immunoblotting with EDD antisera.
as §1
For orientation: A western blot detects proteins with antibodies after separation by electrophoresis.

Assay [6] concerns the target T1, EDDF2, central domain of EDD (aa …). Description: GSTchk2-N pull-down of IVT EDD deletion mutants.
In assay [7] the target is T2, EDDF3, carboxy domain of EDD (aa …). The experiment in a line: GSTchk2-N pull-down of IVT EDD deletion mutants.

B1: GST fused to amino acids 263-538 of human importin α5 (NPI-1) (other)
chain: LFVSDTDVLADACWALSYLSDGPNDKIQAVIDAGVCRRLVELLMHNDYKVVSPALRAVGNIVTGDDIQTQVILNCSALQSLLHLLSSPKESIKKEACWTISNITAGNRAQIQTVIDANIFPALISILQTAEFRTRKEAAWAITNATSGGSAEQIKYLVELGCIKPLCDLLTVMDSKIVQVALNGLENILRLGEQEAKRNGTGINPYCALIEEAYGLDKIEFLQSHENQEIYQKAFDLIEHYFGTEDEDSSIAPQVDLNQQQYIFQQCEAPMEGFQL
notes: also called GST-importin α5; GST-importin α; not shown: glutathione S-transferase (GST) fusion partner from a bacterial plasmid
With B1, the binding result in assay [1], in assay [2] and in assay [3] was “no binding” throughout.

B2: GSTchk2-N derivative containing an R117A substitution (other)
chain: MSRESDVEAQQSHGSSACSQPHGSVTQSQGSSSQSQGISSSSTSTMPNSSQSSHSSSGTLSSLETVSTQELYSIPEDQEPEDQEPEEPTPAPWARLWALQDGFANLECVNDNYWFGADKSCEYCFDEPLLKRTDKYRTYSKKHFRIFREVGPKNSYIAYIEDHSGNGTFVNTELVGKGKRRPLNNNSEIALSLSRNKVFVFFDLTVDDQSVYPKALRDEYIMSKT
notes: also called GSTchk2-N R117A; R117A mutant; not shown: GST fusion partner at the N end and any vector linker
Consider B2, for which the binding result in assay [4] and in assay [5] was “no binding” each time.

B3: GSTchk2-N (GST fused to chk2 aa 1-225) (other)
chain: MSRESDVEAQQSHGSSACSQPHGSVTQSQGSSSQSQGISSSSTSTMPNSSQSSHSSSGTLSSLETVSTQELYSIPEDQEPEDQEPEEPTPAPWARLWALQDGFANLECVNDNYWFGRDKSCEYCFDEPLLKRTDKYRTYSKKHFRIFREVGPKNSYIAYIEDHSGNGTFVNTELVGKGKRRPLNNNSEIALSLSRNKVFVFFDLTVDDQSVYPKALRDEYIMSKT
notes: contains the SQ/TQ and FHA domains; also called GSTCHK2-N (WT); chk2 N-terminus; not shown: glutathione S-transferase (GST) fusion partner
As for B3, the binding result in assay [6] and in assay [7] was “no binding” each time.
